Source: patent publication US20240132578A1

Legend:
Assay in all cases: cell-based or functional assay
[1] = biological target: HIV-1 envelope glycoprotein (Env) of isolate APV_6, on pseudovirus (HIV-1)
[2] = biological target: HIV-1 envelope glycoprotein (Env) of isolate 92UG031, subtype A (HIV-1)
[3] = biological target: HIV-1 envelope glycoprotein (Env) of isolate APV_13, on pseudovirus (HIV-1)
[4] = biological target: HIV-1 Env of isolate MGRM-F1-021 (pseudovirus) (HIV-1)
[5] = biological target: HIV-1 envelope glycoprotein (Env) of isolate MGRM-Chronic-B-018, on pseudovirus (HIV-1)
[6] = biological target: HIV-1 92UG024 Env (HIV-1)
[7] = biological target: HIV-1 Env of isolate MGRM-F1-016 (pseudovirus) (HIV-1)
[8] = biological target: HIV-1 92UG005 Env (HIV-1)
[9] = biological target: HIV-1 envelope glycoprotein (Env) of isolate MG RM-A-010, subtype A (HIV-1)
[10] = biological target: HIV-1 MGRM-AG-005 envelope protein (Env) on pseudovirus (HIV-1)
[11] = biological target: HIV-1 Env of isolate MGRM-AG-001 (pseudovirus) (HIV-1)
[12] = biological target: HIV-1 Env of isolate MGRM-D-002 (HIV-1)
[13] = biological target: HIV-1 Env of isolate MGRM-D-008 (HIV-1)
[14] = biological target: HIV-1 Env of isolate MGRM-C-023 (subtype C), on pseudovirus (HIV-1)
[15] = biological target: HIV-1 Env of pseudovirus isolate MGRM-Chronic-B-003 (clade B) (HIV-1)
[16] = biological target: HIV-1 Env of pseudovirus isolate MGRM-Chronic-B-001 (clade B) (HIV-1)
[17] = biological target: HIV-1 Env of isolate MGRM-A-008 (subtype A) (HIV-1)
[18] = biological target: HIV-1 Env of pseudovirus isolate MGRM-C-027 (clade C) (HIV-1)
[19] = biological target: HIV-1 Env of pseudovirus isolate MGRM-C-014 (clade C) (HIV-1)
[20] = biological target: HIV-1 Env of isolate MGRM-D-029 (HIV-1)
[21] = biological target: HIV-1 Env of pseudovirus isolate MGRM-C-013 (clade C) (HIV-1)
[22] = biological target: HIV-1 Env of isolate MGRM-A-014 (subtype A) (HIV-1)
[23] = biological target: HIV-1 Env of isolate 98CN006 (pseudovirus) (HIV-1)
[24] = biological target: HIV-1 Env of isolate MGRM-AE-005 (subtype AE) (HIV-1)
[25] = biological target: HIV-1 Env of pseudovirus MGRM-D-016 (HIV-1)
[26] = biological target: HIV-1 Env of pseudovirus MGRM-F1-006 (HIV-1)
[27] = biological target: HIV-1 Env of pseudovirus MGRM-D-022 (HIV-1)
[28] = biological target: HIV-1 Env of pseudovirus MGRM-D-018 (HIV-1)
[29] = biological target: HIV-1 envelope glycoprotein (Env) of isolate MGRM-AE-007 (HIV-1)
[30] = biological target: HIV-1 JR-CSF Env L416A (HIV-1 (isolate JR-CSF)) (UniProt P20871)

Chain of 5329_C19 (PGT-136) (antibody) (VH): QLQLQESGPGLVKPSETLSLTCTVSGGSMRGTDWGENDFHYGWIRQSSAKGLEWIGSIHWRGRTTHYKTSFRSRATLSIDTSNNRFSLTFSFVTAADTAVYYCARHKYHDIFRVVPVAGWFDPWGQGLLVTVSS
Chain of 5329_C19 (PGT-136) (antibody) (VL): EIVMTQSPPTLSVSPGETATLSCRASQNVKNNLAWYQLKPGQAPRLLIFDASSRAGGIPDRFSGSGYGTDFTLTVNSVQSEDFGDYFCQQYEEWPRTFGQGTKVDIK
Chain of PGT-142 (4995_E20) (antibody) (VH): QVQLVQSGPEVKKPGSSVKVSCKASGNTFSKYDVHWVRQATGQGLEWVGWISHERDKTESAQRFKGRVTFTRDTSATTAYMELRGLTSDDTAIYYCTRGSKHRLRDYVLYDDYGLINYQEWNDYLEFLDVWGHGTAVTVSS
Chain of PGT-142 (4995_E20) (antibody) (VL): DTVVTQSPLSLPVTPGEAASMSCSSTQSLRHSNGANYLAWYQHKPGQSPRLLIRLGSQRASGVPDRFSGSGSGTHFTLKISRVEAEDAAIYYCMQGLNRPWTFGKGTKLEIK
Chain of PGT-145 (4995_P16) (antibody) (VH): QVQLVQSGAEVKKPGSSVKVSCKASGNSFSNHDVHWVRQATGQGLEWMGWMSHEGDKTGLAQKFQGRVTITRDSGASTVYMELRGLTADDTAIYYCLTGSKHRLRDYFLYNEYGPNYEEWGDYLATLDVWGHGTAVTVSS
Chain of PGT-145 (4995_P16) (antibody) (VL): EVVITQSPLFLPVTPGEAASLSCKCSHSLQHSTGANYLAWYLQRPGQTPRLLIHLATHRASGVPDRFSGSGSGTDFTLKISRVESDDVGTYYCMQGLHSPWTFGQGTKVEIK
Chain of 4993_K13 (PGT-141) (antibody) (VH): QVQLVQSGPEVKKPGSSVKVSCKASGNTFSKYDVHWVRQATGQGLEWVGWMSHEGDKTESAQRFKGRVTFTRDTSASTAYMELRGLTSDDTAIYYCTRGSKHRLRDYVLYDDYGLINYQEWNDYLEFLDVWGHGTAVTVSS

## 4838_L06 (PGT-121) (antibody)
[1]
  IC50, pseudovirus neutralization: 0.018 µg/mL
[2]
  IC50, pseudovirus neutralization: > 50 µg/mL
[3]
  IC50, pseudovirus neutralization: 0.251 µg/mL
[4]
  IC50 (µg/mL), pseudovirus neutralization: 0.099 µg/mL
[5]
  IC50, pseudovirus neutralization: > 50 µg/mL
[6]
  IC50, pseudovirus neutralization: > 10 µg/mL
[7]
  IC50 (µg/mL), pseudovirus neutralization: 0.931 µg/mL
[8]
  IC50, pseudovirus neutralization: > 10 µg/mL
[9]
  IC50, pseudovirus neutralization: 2.44 µg/mL

## 4877_D15 (PGT-122) (antibody)
[10]
  IC50 (ug/mL), pseudovirus neutralization: > 10 µg/mL
[1]
  IC50, pseudovirus neutralization: 0.019 µg/mL
[2]
  IC50, pseudovirus neutralization: > 50 µg/mL
[3]
  IC50, pseudovirus neutralization: 0.778 µg/mL
[4]
  IC50 (µg/mL), pseudovirus neutralization: 2.3 µg/mL
[11]
  IC50 (µg/mL), pseudovirus neutralization: 14.5 µg/mL
[5]
  IC50, pseudovirus neutralization: > 50 µg/mL
[6]
  IC50, pseudovirus neutralization: > 10 µg/mL
[7]
  IC50 (µg/mL), pseudovirus neutralization: 4.81 µg/mL
[8]
  IC50, pseudovirus neutralization: > 10 µg/mL
[9]
  IC50, pseudovirus neutralization: 2.51 µg/mL

## 4993_K13 (PGT-141) (antibody)
[12]
  IC50 (µg/mL), pseudovirus neutralization: > 50 µg/mL
[13]
  IC50 (µg/mL), pseudovirus neutralization: 0.371 µg/mL
[14]
  IC50, single-round pseudovirus neutralization: 0.153 µg/mL
[15]
  IC50, pseudovirus neutralization: 0.4 µg/mL
[16]
  IC50, pseudovirus neutralization: > 50 µg/mL

## 5329_C19 (PGT-136) (antibody)
[10]
  IC50 (ug/mL), pseudovirus neutralization: > 10 µg/mL
[17]
  IC50, pseudovirus neutralization: > 50 µg/mL
[18]
  IC50, pseudovirus neutralization: > 50 µg/mL
[19]
  IC50, pseudovirus neutralization: > 50 µg/mL
[20]
  IC50 (µg/mL), pseudovirus neutralization: > 50 µg/mL
[21]
  IC50, pseudovirus neutralization: > 50 µg/mL
[22]
  IC50, pseudovirus neutralization: > 50 µg/mL
[23]
  IC50 (µg/mL), pseudovirus neutralization: 0.406 µg/mL
[24]
  IC50, pseudovirus neutralization: > 50 µg/mL

## 4995_P16 (PGT-145) (antibody)
[12]
  IC50 (µg/mL), pseudovirus neutralization: > 50 µg/mL
[13]
  IC50 (µg/mL), pseudovirus neutralization: 0.025 µg/mL
[14]
  IC50, single-round pseudovirus neutralization: 0.201 µg/mL
[15]
  IC50, pseudovirus neutralization: 0.045 µg/mL
[16]
  IC50, pseudovirus neutralization: 3.22 µg/mL

## PGT-141 (4964_G22; 4993_K13) (antibody)
[25]
  IC50, pseudovirus neutralization: > 50 µg/mL
[26]
  IC50, pseudovirus neutralization: 8.99 µg/mL
[27]
  IC50, pseudovirus neutralization: > 50 µg/mL
[28]
  IC50, pseudovirus neutralization: > 50 µg/mL
[29]
  IC50: 33.1 µg/mL

## PGT-145 (4995_P16) (antibody)
[25]
  IC50, pseudovirus neutralization: > 50 µg/mL
[26]
  IC50, pseudovirus neutralization: 13.6 µg/mL
[27]
  IC50, pseudovirus neutralization: 34.3 µg/mL
[28]
  IC50, pseudovirus neutralization: 0.065 µg/mL
[29]
  IC50: 0.181 µg/mL

## PGV04 (antibody)
[11]
  IC50 (µg/mL), pseudovirus neutralization: 0.218 µg/mL

## PGT-142 (4995_E20) (antibody)
[25]
  IC50, pseudovirus neutralization: > 50 µg/mL
[26]
  IC50, pseudovirus neutralization: 12.9 µg/mL
[27]
  IC50, pseudovirus neutralization: > 50 µg/mL
[28]
  IC50, pseudovirus neutralization: > 50 µg/mL
[29]
  IC50: 6.7 µg/mL

## 5343_B08 (PGT-135) (antibody)
[10]
  IC50 (ug/mL), pseudovirus neutralization: > 10 µg/mL
[17]
  IC50, pseudovirus neutralization: > 50 µg/mL
[18]
  IC50, pseudovirus neutralization: > 50 µg/mL
[19]
  IC50, pseudovirus neutralization: > 50 µg/mL
[20]
  IC50 (µg/mL), pseudovirus neutralization: 30.8 µg/mL
[21]
  IC50, pseudovirus neutralization: > 50 µg/mL
[22]
  IC50, pseudovirus neutralization: 0.636 µg/mL
[30]
  Fold IC50 increase relative to wild-type (pseudovirus neutralization): 1.2 fold
[23]
  IC50 (µg/mL), pseudovirus neutralization: 0.429 µg/mL
[24]
  IC50, pseudovirus neutralization: > 50 µg/mL

## 4995_E20 (PGT-142) (antibody)
[12]
  IC50 (µg/mL), pseudovirus neutralization: > 50 µg/mL
[13]
  IC50 (µg/mL), pseudovirus neutralization: 0.174 µg/mL
[14]
  IC50, single-round pseudovirus neutralization: 0.087 µg/mL
[15]
  IC50, pseudovirus neutralization: 0.484 µg/mL
[16]
  IC50, pseudovirus neutralization: > 50 µg/mL
